Assay results taken from patent US20260139049A1.
Like-named read-outs stand apart in the source and are kept apart here.

Assays:
human CLDN6 (human) [1] = target: human CLDN6 (human) (UniProt P56747); assay: FACS on HEK293T-CLDN6 cells
[2] = target: monkey CLDN6 (Cyno CLDN6) (monkey (Cyno)); assay: FACS on CHO-K1-Cyno CLDN6 cells
mouse CLDN6 (mouse) [3] = target: mouse CLDN6 (mouse) (UniProt Q9Z262); assay: FACS on CHO-K1-Mouse CLDN6 cells
human CLDN3 (human) = human CLDN3 (human) (UniProt O15551); assay: FACS on 293T-CLDN3 cells, 10 µg/mL
human CLDN4 (human) = human CLDN4 (human) (UniProt O14493); assay: FACS on 293T-CLDN4 cells, 10 µg/mL
human CLDN6 (human) [4] = target: human CLDN6 (human) (UniProt P56747); assay: FACS on 293T-CLDN6 cells, 10 µg/mL
human CLDN9 (human) [5] = target: human CLDN9 (human) (UniProt O95484); assay: FACS on 293T-CLDN9 cells, 10 µg/mL
human CLDN6 (human) [6] = target: human CLDN6 (human) (UniProt P56747); assay: FACS on 293T-CLDN6 cells, 10 µg/mL; remark: listed apart in the source
human CLDN9 (human) [7] = target: human CLDN9 (human) (UniProt O95484); assay: FACS on 293T-CLDN9 cells, 10 µg/mL; remark: listed apart in the source
human CLDN6 (human) [8] = target: human CLDN6 (human) (UniProt P56747); assay: FACS on 293T-CLDN6 cells, 10 µg/mL; remark: listed apart in the source
human CLDN9 (human) [9] = target: human CLDN9 (human) (UniProt O95484); assay: FACS on 293T-CLDN9 cells, 10 µg/mL; remark: listed apart in the source
human CLDN6 (human) [10] = target: human CLDN6 (human) (UniProt P56747); assay: FACS on PA-1 tumour cells; target on the cells taken as CLDN6
human CLDN6 (human) [11] = target: human CLDN6 (human) (UniProt P56747); assay: as above; remark: listed apart in the source
human CLDN6 (human) [12] = target: human CLDN6 (human) (UniProt P56747); assay: FACS on HepG2 tumour cells; target on the cells taken as CLDN6
human CLDN6 (human) [13] = target: human CLDN6 (human) (UniProt P56747); assay: as above; remark: listed apart in the source
human CLDN6 (human) [14] = target: human CLDN6 (human) (UniProt P56747); assay: ratio of FACS Geom.Mean on 293T-CLDN6 over 293T-CLDN9, 10 µg/mL
human CLDN6 (human) [15] = target: human CLDN6 (human) (UniProt P56747); assay: FACS on HepG2 tumour cells, 5 µg/mL; target on the cells taken as CLDN6
mouse CLDN6 (mouse) [16] = target: mouse CLDN6 (mouse) (UniProt Q9Z262); assay: FACS
mouse CLDN6 (mouse) [17] = target: mouse CLDN6 (mouse) (UniProt Q9Z262); assay: FACS; FIG. 20

Chain of human CLDN9 (human) (O95484 whole entry): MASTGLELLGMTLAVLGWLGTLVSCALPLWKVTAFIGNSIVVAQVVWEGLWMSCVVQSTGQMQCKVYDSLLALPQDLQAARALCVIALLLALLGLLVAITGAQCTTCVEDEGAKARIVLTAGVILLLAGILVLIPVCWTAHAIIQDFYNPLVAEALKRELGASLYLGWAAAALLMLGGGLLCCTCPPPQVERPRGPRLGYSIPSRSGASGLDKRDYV
Chain of mouse CLDN6 (mouse) (Q9Z262 whole entry): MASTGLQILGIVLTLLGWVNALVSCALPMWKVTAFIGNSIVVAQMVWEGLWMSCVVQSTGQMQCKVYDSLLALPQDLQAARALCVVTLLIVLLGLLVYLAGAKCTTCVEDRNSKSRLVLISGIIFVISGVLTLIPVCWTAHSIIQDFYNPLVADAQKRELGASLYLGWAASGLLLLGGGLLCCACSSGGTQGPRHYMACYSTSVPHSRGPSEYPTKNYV
Chain of human CLDN6 (human) (P56747 whole entry): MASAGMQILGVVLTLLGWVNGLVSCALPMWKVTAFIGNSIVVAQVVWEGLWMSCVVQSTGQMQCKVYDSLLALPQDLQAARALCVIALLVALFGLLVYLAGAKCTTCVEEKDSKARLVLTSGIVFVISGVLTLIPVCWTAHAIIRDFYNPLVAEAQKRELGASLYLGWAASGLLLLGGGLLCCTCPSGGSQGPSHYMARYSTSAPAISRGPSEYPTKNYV
Chain of human CLDN3 (human) (O15551 whole entry): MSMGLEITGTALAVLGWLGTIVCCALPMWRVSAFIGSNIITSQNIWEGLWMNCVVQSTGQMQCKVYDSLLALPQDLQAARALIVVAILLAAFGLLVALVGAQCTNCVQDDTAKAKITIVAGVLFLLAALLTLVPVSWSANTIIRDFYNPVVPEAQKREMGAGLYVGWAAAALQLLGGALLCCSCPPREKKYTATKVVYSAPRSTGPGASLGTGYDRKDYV

EC50 (human CLDN6 (human) [1]) [µg/mL]	FACS signal (human CLDN6 (human) [1])	EC50 [2] [µg/mL]	EC50 (mouse CLDN6 (mouse) [3]) [µg/mL]	Geom.Mean (human CLDN3 (human))	Geom.Mean (human CLDN4 (human))	Geom.Mean (human CLDN6 (human) [4])	Geom.Mean (human CLDN9 (human) [5])	Geom.Mean (human CLDN6 (human) [6])	Geom.Mean (human CLDN9 (human) [7])	Geom.Mean (human CLDN6 (human) [8])	Geom.Mean (human CLDN9 (human) [9])	EC50 (human CLDN6 (human) [10]) [µg/mL]	EC50 (human CLDN6 (human) [11]) [µg/mL]	EC50 (human CLDN6 (human) [12]) [µg/mL]	EC50 (human CLDN6 (human) [13]) [µg/mL]	CLDN6/CLDN9 ratio (human CLDN6 (human) [14])	Geom.Mean (human CLDN6 (human) [15])	EC50 (mouse CLDN6 (mouse) [16]) [µg/mL]	EC50 (mouse CLDN6 (mouse) [17]) [µg/mL]	Substance
323	136	132	78.8	168	158	196	119	163	79.4	222	295	138000	194	63700	77.5	1.6	57.6	–	–	Human IgG (antibody)
–	–	–	–	–	–	–	–	–	–	–	–	–	–	–	–	–	–	0.332	0.332	IMAB027
